What was measured:
[1] = target: T1, recombinant human PRX1 (Sigma-Aldrich) (human) (UniProt Q06830)
T1 sequence: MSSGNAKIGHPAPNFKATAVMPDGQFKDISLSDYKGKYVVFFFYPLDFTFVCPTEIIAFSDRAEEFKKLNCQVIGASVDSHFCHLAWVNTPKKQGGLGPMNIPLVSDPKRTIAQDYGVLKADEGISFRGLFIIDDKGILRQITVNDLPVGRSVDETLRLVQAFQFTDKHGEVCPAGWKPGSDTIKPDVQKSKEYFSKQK

[2] = target: T1, recombinant human PRX1 (Sigma-Aldrich) (human); remark: listed apart in the source

B1: recombinant fortilin_(ΔL7R) tagged with Strep-tag (natural protein)
chain: MIIYRDRISHDEMFSDIYKIREIADGLCLEVEGKMVSRTEGNIDDSLIGGNASAEGPEGEGTESTVITGVDIVMNHHLQETSFTKEAYKKYIKDYMKSIKGKLEEQRPERVKPFMTGAAEQIKHILANFKNYQFFIGENMNPDGMVALLDYREDGVTPYMIFFKDGLEMEKC
PRX1 peroxidase activity in vitro (NADPH consumption rate, reaction mix normalized to 1.00; PRX1 alone 4.38) with fortilin (ΔL7R) added [1]: 5.9 A.U.
decrease of PRX1 enzymatic activity (NADPH consumption rate) by Mst1 in the presence of fortilin (ΔL7R) (PRX1 alone: 75.3% decrease) [2]: 77.9 % decrease

Source: PMC4698670
